Source: paper PMC5995566 (Biochemistry, 2017)

Target: T1, human S100A5 (human)
T1 sequence (P33763 1-92, looked up): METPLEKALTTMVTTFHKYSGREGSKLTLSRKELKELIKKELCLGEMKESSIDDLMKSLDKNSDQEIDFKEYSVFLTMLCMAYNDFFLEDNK
Test: ITC

Binder: RRLLFYKYVYKR [12 amino acid fragment of the protein NCX1]
- Kd: 18 ± 4 µM
- dH: -3.6 ± 1 kcal/mol
